Experimental data from the supplement of paper PMC5998384.

What was measured:
HeLa Kyoto [1] = experiment: melting temperature (median over replicates), in situ; higher = more thermally stable
HeLa Kyoto [2] = experiment: solubility in G1/S (NP-40 vs SDS abundance) (log2 ratio); higher = more soluble; settings: cell cycle stage: G1/S
HeLa Kyoto [3] = experiment: thermal stability score vs G1/S (z-score of summed log2 fold changes over temperatures); higher = more thermally stable than in G1/S
HeLa Kyoto [4] = experiment: solubility change mitosis vs G1/S (difference of NP-40 vs SDS log2 ratios) (log2 ratio difference); higher = more soluble in mitosis
[5] = cell cycle stage: early G1 (4.5 h after nocodazole release)
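Wherever melting temperature (median over replicates), in situ is given: HeLa Kyoto cells synchronized by double thymidine or nocodazole block, proteins quantified by TMT10plex mass spectrometry, three independent biological replicates.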
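Wherever solubility change mitosis vs G1/S (difference of NP-40 vs SDS log2 ratios) is given: synchronized HeLa Kyoto cells (double thymidine block for G1/S, nocodazole release for mitosis), protein amounts in NP-40 versus SDS lysates quantified by mass spectrometry, three biological replicates.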
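Wherever solubility in G1/S (NP-40 vs SDS abundance) is given: HeLa Kyoto cells arrested at G1/S by double thymidine block, proteins quantified by TMT10plex mass spectrometry in mild NP-40 versus SDS extracts, three biological replicates.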
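Wherever thermal stability score vs G1/S (z-score of summed log2 fold changes over temperatures) is given: synchronized HeLa Kyoto cells, proteins quantified by TMT10plex mass spectrometry, three biological replicates, mitosis taken 0.5 h after nocodazole release, G1/S directly after double thymidine block.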

Chain of RABGAP1 (chain, as listed by the source): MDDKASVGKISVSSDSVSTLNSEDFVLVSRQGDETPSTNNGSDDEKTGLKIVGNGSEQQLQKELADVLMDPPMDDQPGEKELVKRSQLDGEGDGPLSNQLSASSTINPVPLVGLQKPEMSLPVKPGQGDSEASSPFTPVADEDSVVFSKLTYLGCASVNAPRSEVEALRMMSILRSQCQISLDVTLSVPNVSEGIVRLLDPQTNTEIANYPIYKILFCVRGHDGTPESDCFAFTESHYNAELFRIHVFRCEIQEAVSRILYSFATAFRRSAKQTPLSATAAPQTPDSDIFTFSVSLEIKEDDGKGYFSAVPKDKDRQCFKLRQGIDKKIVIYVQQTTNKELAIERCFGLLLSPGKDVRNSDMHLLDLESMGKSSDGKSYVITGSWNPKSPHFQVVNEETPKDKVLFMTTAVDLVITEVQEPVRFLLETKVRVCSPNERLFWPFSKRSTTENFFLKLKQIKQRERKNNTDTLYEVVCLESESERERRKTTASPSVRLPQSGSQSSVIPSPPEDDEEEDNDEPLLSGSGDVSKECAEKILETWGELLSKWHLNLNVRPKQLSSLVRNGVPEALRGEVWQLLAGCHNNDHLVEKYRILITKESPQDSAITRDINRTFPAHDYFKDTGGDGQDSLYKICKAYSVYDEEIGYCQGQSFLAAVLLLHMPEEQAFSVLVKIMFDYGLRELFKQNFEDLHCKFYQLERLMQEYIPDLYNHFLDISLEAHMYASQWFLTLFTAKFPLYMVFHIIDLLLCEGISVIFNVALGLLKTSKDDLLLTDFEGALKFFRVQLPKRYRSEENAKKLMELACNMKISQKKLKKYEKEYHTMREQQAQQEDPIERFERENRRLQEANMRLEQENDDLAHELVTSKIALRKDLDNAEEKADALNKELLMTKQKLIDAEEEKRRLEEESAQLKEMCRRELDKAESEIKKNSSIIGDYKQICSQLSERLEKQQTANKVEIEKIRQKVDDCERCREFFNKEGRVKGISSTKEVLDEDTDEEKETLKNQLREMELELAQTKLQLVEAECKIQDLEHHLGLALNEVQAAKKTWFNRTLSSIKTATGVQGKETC

Substance	melting temperature (HeLa Kyoto [1]; cell cycle stage: G1/S) [°C]	melting temperature (HeLa Kyoto [1]; cell cycle stage: mitosis) [°C]	solubility in G1/S (log2) (HeLa Kyoto [2])	thermal stability score (HeLa Kyoto [3]; [5])	thermal stability score (HeLa Kyoto [3]; cell cycle stage: mitosis)	solubility change mitosis (log2) (HeLa Kyoto [4])
MFSSVAHLARANPFNTPHLQLVHDGLGDLRSSSPGPTGQPRRPRNLAAAAVEEQYSCDYGSGRFFILCGLGGIISCGTTHTALVPLDLVKCRMQVDPQKYKGIFNGFSVTLKEDGVRGLAKGWAPTFLGYSMQGLCKFGFYEVFKVLYSNMLGEENTYLWRTSLYLAASASAEFFADIALAPMEAAKVRIQTQPGYANTLRDAAPKMYKEEGLKAFYKGVAPLWMRQIPYTMMKFACFERTVEALYKFVVPKPRSECSKPEQLVVTFVAGYIAGVFCAIVSHPADSVVSVLNKEKGSSASLVLKRLGFKGVWKGLFARIIMIGTLTALQWFIYDSVKVYFRLPRPPPPEMPESLKKKLGLTQ [SLC25A3]	56.3	56	-0.0671	-1.42	-3.39	-0.0903
MATEQRPFHLVVFGASGFTGQFVTEEVAREQVDPERSSRLPWAVAGRSREKLQRVLEKAALKLGRPTLSSEVGIIICDIANPASLDEMAKQATVVLNCVGPYRFYGEPVIKACIENGASCIDISGEPQFLELMQLKYHEKAADKGVYIIGSSGFDSIPADLGVIYTRNKMNGTLTAVESFLTIHSGPEGLSIHDGTWKSAIYGFGDQSNLRKLRNVSNLKPVPLIGPKLKRRWPISYCRELKGYSIPFMGSDVSVVRRTQRYLYENLEESPVQYAAYVTVGGITSVIKLMFAGLFFLFFVRFGIGRQLLIKFPWFFSFGYFSKQGPTQKQIDAASFTLTFFGQGYSQGTGTDKNKPNIKICTQVKGPEAGYVATPIAMVQAAMTLLSDASHLPKAGGVFTPGAAFSKTKLIDRLNKHGIEFSVISSSEV [SCCPDH]	53.2	54	-0.086	0.42	-2.32	0.0063
COL5A1	55.6	55.3	-0.2	-0.461	1.15	0.0059
MGLPEPGPLRLLALLLLLLLLLLLQLQHLAAAAADPLLGGQGPAKDCEKDQFQCRNERCIPSVWRCDEDDDCLDHSDEDDCPKKTCADSDFTCDNGHCIHERWKCDGEEECPDGSDESEATCTKQVCPAEKLSCGPTSHKCVPASWRCDGEKDCEGGADEAGCATLCAPHEFQCGNRSCLAAVFVCDGDDDCGDGSDERGCADPACGPREFRCGGDGGGACIPERWVCDRQFDCEDRSDEAAELCGRPGPGATSAPAACATASQFACRSGECVHLGWRCDGDRDCKDKSDEADCPLGTCRGDEFQCGDGTCVLAIKHCNQEQDCPDGSDEAGCLQGLNECLHNNGGCSHICTDLKIGFECTCPAGFQLLDQKTCGDIDECKDPDACSQICVNYKGYFKCECYPGYEMDLLTKNCKAAAGKSPSLIFTNRHEVRRIDLVKRNYSRLIPMLKNVVALDVEVATNRIYWCDLSYRKIYSAYMDKASDPKEQEVLIDEQLHSPEGLAVDWVHKHIYWTDSGNKTISVATVDGGRRRTLFSRNLSEPRAIAVDPLRGFMYWSDWGDQAKIEKSGLNGVDRQTLVSDNIEWPNGITLDLLSQRLYWVDSKLHQLSSIDFSGGNRKTLISSTDFLSHPFGIAVFEDKVFWTDLENEAIFSANRLNGLEISILAENLNNPHDIVIFHELKQPRAPDACELSVQPNGGCEYLCLPAPQISSHSPKYTCACPDTMWLGPDMKRCYRAPQSTSTTTLASTMTRTVPATTRAPGTTVHRSTYQNHSTETPSLTAAVPSSVSVPRAPSISPSTLSPATSNHSQHYANEDSKMGSTVTAAVIGIIVPIVVIALLCMSGYLIWRNWKRKNTKSMNFDNPVYRKTTEEEDEDELHIGRTAQIGHVYPAAISSFDRPLWAEPCLGETREPEDPAPALKELFVLPGEPRSQLHQLPKNPLSELPVVKSKRVALSLEDDGLP [LRP8]	55.6	56.7	0.0581	-3.43	-3.53	-0.0602
MNEEYDVIVLGTGLTECILSGIMSVNGKKVLHMDRNPYYGGESASITPLEDLYKRFKIPGSPPESMGRGRDWNVDLIPKFLMANGQLVKMLLYTEVTRYLDFKVTEGSFVYKGGKIYKVPSTEAEALASSLMGLFEKRRFRKFLVYVANFDEKDPRTFEGIDPKKTTMRDVYKKFDLGQDVIDFTGHALALYRTDDYLDQPCYETINRIKLYSESLARYGKSPYLYPLYGLGELPQGFARLSAIYGGTYMLNKPIEEIIVQNGKVIGVKSEGEIARCKQLICDPSYVKDRVEKVGQVIRVICILSHPIKNTNDANSCQIIIPQNQVNRKSDIYVCMISFAHNVAAQGKYIAIVSTTVETKEPEKEIRPALELLEPIEQKFVSISDLLVPKDLGTESQIFISRTYDATTHFETTCDDIKNIYKRMTGSEFDFEEMKRKKNDIYGED [GDI2]	55.2	54.7	0.218	-1.03	-0.13	-0.174
MASVTRAVFGELPSGGGTVEKFQLQSDLLRVDIISWGCTITALEVKDRQGRASDVVLGFAELEGYLQKQPYFGAVIGRVANRIAKGTFKVDGKEYHLAINKEPNSLHGGVRGFDKVLWTPRVLSNGVQFSRISPDGEEGYPGELKVWVTYTLDGGELIVNYRAQASQATPVNLTNHSYFNLAGQASPNINDHEVTIEADTYLPVDETLIPTGEVAPVQGTAFDLRKPVELGKHLQDFHLNGFDHNFCLKGSKEKHFCARVHHAASGRVLEVYTTQPGVQFYTGNFLDGTLKGKNGAVYPKHSGFCLETQNWPDAVNQPRFPPVLLRPGEEYDHTTWFKFSVA [GALM]		51.4	0.236	-0.647	-0.863	-0.0325
RABGAP1	50.9	50.5	-0.122	-0.113	-0.37	-0.111
MPPPSDIVKVAIEWPGANAQLLEIDQKRPLASIIKEVCDGWSLPNPEYYTLRYADGPQLYITEQTRSDIKNGTILQLAISPSRAARQLMERTQSSNMETRLDAMKELAKLSADVTFATEFINMDGIIVLTRLVESGTKLLSHYSEMLAFTLTAFLELMDHGIVSWDMVSITFIKQIAGYVSQPMVDVSILQRSLAILESMVLNSQSLYQKIAEEITVGQLISHLQVSNQEIQTYAIALINALFLKAPEDKRQDMANAFAQKHLRSIILNHVIRGNRPIKTEMAHQLYVLQVLTFNLLEERMMTKMDPNDQAQRDIIFELRRIAFDAESDPSNAPGSGTEKRKAMYTKDYKMLGFTNHINPAMDFTQTPPGMLALDNMLYLAKVHQDTYIRIVLENSSREDKHECPFGRSAIELTKMLCEILQVGELPNEGRNDYHPMFFTHDRAFEELFGICIQLLNKTWKEMRATAEDFNKVMQVVREQITRALPSKPNSLDQFKSKLRSLSYSEILRLRQSERMSQDDFQSPPIVELREKIQPEILELIKQQRLNRLCEGSSFRKIGNRRRQERFWYCRLALNHKVLHYGDLDDNPQGEVTFESLQEKIPVADIKAIVTGKDCPHMKEKSALKQNKEVLELAFSILYDPDETLNFIAPNKYEYCIWIDGLSALLGKDMSSELTKSDLDTLLSMEMKLRLLDLENIQIPEAPPPIPKEPSSYDFVYHYG [ELMO2]	49.5	49.5	0.00667	0.0114	0.0809	-0.134
MERSPGEGPSPSPMDQPSAPSDPTDQPPAAHAKPDPGSGGQPAGPGAAGEALAVLTSFGRRLLVLIPVYLAGAVGLSVGFVLFGLALYLGWRRVRDEKERSLRAARQLLDDEEQLTAKTLYMSHRELPAWVSFPDVEKAEWLNKIVAQVWPFLGQYMEKLLAETVAPAVRGSNPHLQTFTFTRVELGEKPLRIIGVKVHPGQRKEQILLDLNISYVGDVQIDVEVKKYFCKAGVKGMQLHGVLRVILEPLIGDLPFVGAVSMFFIRRPTLDINWTGMTNLLDIPGLSSLSDTMIMDSIAAFLVLPNRLLVPLVPDLQDVAQLRSPLPRGIIRIHLLAARGLSSKDKYVKGLIEGKSDPYALVRLGTQTFCSRVIDEELNPQWGETYEVMVHEVPGQEIEVEVFDKDPDKDDFLGRMKLDVGKVLQASVLDDWFPLQGGQGQVHLRLEWLSLLSDAEKLEQVLQWNWGVSSRPDPPSAAILVVYLDRAQDLPLKKGNKEPNPMVQLSIQDVTQESKAVYSTNCPVWEEAFRFFLQDPQSQELDVQVKDDSRALTLGALTLPLARLLTAPELILDQWFQLSSSGPNSRLYMKLVMRILYLDSSEICFPTVPGCPGAWDVDSENPQRGSSVDAPPRPCHTTPDSQFGTEHVLRIHVLEAQDLIAKDRFLGGLVKGKSDPYVKLKLAGRSFRSHVVREDLNPRWNEVFEVIVTSVPGQELEVEVFDKDLDKDDFLGRCKVRLTTVLNSGFLDEWLTLEDVPSGRLHLRLERLTPRPTAAELEEVLQVNSLIQTQKSAELAAALLSIYMERAEDLPLRKGTKHLSPYATLTVGDSSHKTKTISQTSAPVWDESASFLIRKPHTESLELQVRGEGTGVLGSLSLPLSELLVADQLCLDRWFTLSSGQGQVLLRAQLGILVSQHSGVEAHSHSYSHSSSSLSEEPELSGGPPHITSSAPELRQRLTHVDSPLEAPAGPLGQVKLTLWYYSEERKLVSIVHGCRSLRQNGRDPPDPYVSLLLLPDKNRGTKRRTSQKKRTLSPEFNERFEWELPLDEAQRRKLDVSVKSNSSFMSRERELLGKVQLDLAETDLSQGVARWYDLMDNKDKGSS [ESYT1]	49.1	50.1	0.0161	2.16	4.68	-0.113
MEVPPRLSHVPPPLFPSAPATLASRSLSHWRPRPPRQLAPLLPSLAPSSARQGARRAQRHVTAQQPSRLAGGAAIKGGRRRRPDLFRRHFKSSSIQRSAAAAAATRTARQHPPADSSVTMEDMNEYSNIEEFAEGSKINASKNQQDDGKMFIGGLSWDTSKKDLTEYLSRFGEVVDCTIKTDPVTGRSRGFGFVLFKDAASVDKVLELKEHKLDGKLIDPKRAKALKGKEPPKKVFVGGLSPDTSEEQIKEYFGAFGEIENIELPMDTKTNERRGFCFITYTDEEPVKKLLESRYHQIGSGKCEIKVAQPKEVYRQQQQQQKGGRGAAAGGRGGTRGRGRGQGQNWNQGFNNYYDQGYGNYNSAYGGDQNYSGYGGYDYTGYNYGNYGYGQGYADYSGQQSTYGKASRGGGNHQNNYQPY [HNRNPDL]	54.4	53.6	-0.122	0.0293	-2.51	0.352
MLPHVVLTFRRLGCALASCRLAPARHRGSGLLHTAPVARSDRSAPVFTRALAFGDRIALVDQHGRHTYRELYSRSLRLSQEICRLCGCVGGDLREERVSFLCANDASYVVAQWASWMSGGVAVPLYRKHPAAQLEYVICDSQSSVVLASQEYLELLSPVVRKLGVPLLPLTPAIYTGAVEEPAEVPVPEQGWRNKGAMIIYTSGTTGRPKGVLSTHQNIRAVVTGLVHKWAWTKDDVILHVLPLHHVHGVVNALLCPLWVGATCVMMPEFSPQQVWEKFLSSETPRINVFMAVPTIYTKLMEYYDRHFTQPHAQDFLRAVCEEKIRLMVSGSAALPLPVLEKWKNITGHTLLERYGMTEIGMALSGPLTTAVRLPGSVGTPLPGVQVRIVSENPQREACSYTIHAEGDERGTKVTPGFEEKEGELLVRGPSVFREYWNKPEETKSAFTLDGWFKTGDTVVFKDGQYWIRGRTSVDIIKTGGYKVSALEVEWHLLAHPSITDVAVIGVPDMTWGQRVTAVVTLREGHSLSHRELKEWARNVLAPYAVPSELVLVEEIPRNQMGKIDKKALIRHFHPS [ACSF3]	49.3	49.7	-0.107	-0.21	1.59	-0.0957
MGEKSENCGVPEDLLNGLKVTDTQEAECAGPPVPDPKNQHSQSKLLRDDEAHLQEDQGEEECFHDCSASFEEEPGADKVENKSNEDVNSSELDEEYLIELEKNMSDEEKQKRREESTRLKEEGNEQFKKGDYIEAESSYSRALEMCPSCFQKERSILFSNRAAARMKQDKKEMAINDCSKAIQLNPSYIRAILRRAELYEKTDKLDEALEDYKSILEKDPSIHQAREACMRLPKQIEERNERLKEEMLGKLKDLGNLVLRPFGLSTENFQIKQDSSTGSYSINFVQNPNNNR [TTC1]	56.2	56.4	0.455	-3	-2.41	0.183
